# Measured values taken from PMC4188031.
# Tests used:
# Test in all cases: SPR (ProteOn XPR36, GLC chip), co-injection mode with pH shift
# Details in all cases: pH 7.4; 25°C (stated for the immobilisation step; not restated for the binding runs); 150 mM NaCl (plus 20 mM Na-phosphate); PBS-TE: 20 mM Na-phosphate; association at pH 6.0, dissociation at pH 7.4
# [1] = target: B21M anti-RSV IgG1 N434A N434A (EU numbering) (UniProt P01857)
# [2] = target: B21M anti-RSV IgG1 N434Y N434Y (EU numbering) (UniProt P01857)
# [3] = target: B21M anti-RSV IgG1, wild-type Fc (mAb WT) (UniProt P01857)
substance,measurement,setting,value
"neonatal Fc receptor (rat FcRn, rFcRn)",off-rate (koff) after pH shift 6.0 to 7.4,[1],0.09 1/s
same,off-rate (koff) after pH shift 6.0 to 7.4,[2],0.02 1/s
same,off-rate (koff) after pH shift 6.0 to 7.4,[3],0.07 1/s
